Laboratory results from publication PMC10765524.

Target: PP2A:B55 holoenzyme (PP2Aa, B55, PP2Ac) (UniProt P30153)
Sequence (P30153 9-589, chain 1 of 3): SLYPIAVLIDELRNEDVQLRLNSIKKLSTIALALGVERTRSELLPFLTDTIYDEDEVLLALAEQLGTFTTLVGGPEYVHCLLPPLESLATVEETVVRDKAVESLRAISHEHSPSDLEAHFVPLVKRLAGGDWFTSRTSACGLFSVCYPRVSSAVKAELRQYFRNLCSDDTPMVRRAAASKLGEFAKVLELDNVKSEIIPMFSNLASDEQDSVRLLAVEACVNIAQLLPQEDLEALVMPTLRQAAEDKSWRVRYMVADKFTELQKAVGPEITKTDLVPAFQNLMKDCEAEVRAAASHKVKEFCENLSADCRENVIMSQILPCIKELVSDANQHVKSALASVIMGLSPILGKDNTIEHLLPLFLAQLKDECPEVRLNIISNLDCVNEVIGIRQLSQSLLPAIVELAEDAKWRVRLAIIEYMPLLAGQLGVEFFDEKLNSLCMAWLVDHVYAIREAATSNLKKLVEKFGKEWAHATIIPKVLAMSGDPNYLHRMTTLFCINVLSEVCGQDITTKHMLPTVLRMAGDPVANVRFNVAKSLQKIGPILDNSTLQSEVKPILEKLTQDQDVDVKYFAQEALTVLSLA
Sequence (P63151 whole entry, chain 2 of 3, further chain): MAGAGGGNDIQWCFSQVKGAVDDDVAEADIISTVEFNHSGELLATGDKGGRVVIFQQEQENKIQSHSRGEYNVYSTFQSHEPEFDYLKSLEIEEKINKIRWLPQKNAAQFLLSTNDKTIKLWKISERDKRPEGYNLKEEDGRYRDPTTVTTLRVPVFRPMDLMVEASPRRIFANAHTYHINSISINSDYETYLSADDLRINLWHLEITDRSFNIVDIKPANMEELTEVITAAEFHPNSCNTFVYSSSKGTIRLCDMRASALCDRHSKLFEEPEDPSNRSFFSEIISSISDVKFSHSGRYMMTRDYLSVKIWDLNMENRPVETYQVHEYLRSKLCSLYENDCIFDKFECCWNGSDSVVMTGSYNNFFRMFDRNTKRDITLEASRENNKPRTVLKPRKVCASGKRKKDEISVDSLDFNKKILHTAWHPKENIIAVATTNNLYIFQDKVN
Sequence (P67775 whole entry, chain 3 of 3, further chain): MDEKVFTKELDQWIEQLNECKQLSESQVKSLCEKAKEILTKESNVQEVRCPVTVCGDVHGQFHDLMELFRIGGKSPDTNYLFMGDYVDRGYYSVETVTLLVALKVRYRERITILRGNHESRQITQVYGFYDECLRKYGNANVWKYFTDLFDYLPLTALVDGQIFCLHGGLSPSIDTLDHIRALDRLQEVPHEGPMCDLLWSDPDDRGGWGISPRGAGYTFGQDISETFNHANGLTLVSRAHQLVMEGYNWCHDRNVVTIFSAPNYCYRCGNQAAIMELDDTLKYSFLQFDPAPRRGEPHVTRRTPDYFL

Substance	inhibition of PP2A:B55 phosphatase activity (DiFMUP), against wild type [fold]
FAM122AID R105L (domain or fragment)	11
FAM122AID E104A/S120C (domain or fragment)	2
FAM122AID V107G (domain or fragment)	6
